Source: paper PMC6048237
Several values for one entry are separate records, joined by “and”; a condition that tells them apart may be missing. Equal values may be shown once.

Target: Trypanosoma evansi mevalonate kinase (TeMVK), N-terminal 6xHis-tagged recombinant (Trypanosoma evansi)
Assay: SEC; Superdex 200 16/600, 30 mM glycine pH 9.0, 150 mM NaCl; TeMVK expressed in autoinduction medium ZYM5052; sizes estimated from calibration with gel filtration standard

- stoichiometry N: 2 and 4
Substance: Trypanosoma evansi mevalonate kinase (TeMVK), N-terminal 6xHis-tagged recombinant (enzyme)
